Measurements as given in paper PMC12025923 (Cells, 2025).

B1: wild-type 14-3-3γ-3xHA [human] / GFP-SLP76 [human] (parent)
chain 1: MVDREQLVQKARLAEQAERYDDMAAAMKNVTELNEPLSNEERNLLSVAYKNVVGARRSSWRVISSIEQKTSADGNEKKIEMVRAYREKIEKELEAVCQDVLSLLDNYLIKNCSETQYESKVFYLKMKGDYYRYLAEVATGEKRATVVESSEKAYSEAHEISKEHMQPTHPIRLGLALNYSVFYYEIQNAPEQACHLAKTAFDDAIAELDTLNEDSYKDSTLIMQLLRDNLTLWTSDQQDDDGGEGNN
chain 2: MALRNVPFRSEVLGWDPDSLADYFKKLNYKDCEKAVKKYHIDGARFLNLTENDIQKFPKLRVPILSKLSQEINKNEERRSIFTRKPQVPRFPEETESHEEDNGGWSSFEEDDYESPNDDQDGEDDGDYESPNEEEEAPVEDDADYEPPPSNDEEALQNSILPAKPFPNSNSMYIDRPPSGKTPQQPPVPPQRPMAALPPPPAGRNHSPLPPPQTNHEEPSRSRNHKTAKLPAPSIDRSTKPPLDRSLAPFDREPFTLGKKPPFSDKPSIPAGRSLGEHLPKIQKPPLPPTTERHERSSPLPGKKPPVPKHGWGPDRRENDEDDVHQRPLPQPALLPMSSNTFPSRSTKPSPMNPLPSSHMPGAFSESNSSFPQSASLPPYFSQGPSNRPPIRAEGRNFPLPLPNKPRPPSPAEEENSLNEEWYVSYITRPEAEAALRKINQDGTFLVRDSSKKTTTNPYVLMVLYKDKVYNIQIRYQKESQVYLLGTGLRGKEDFLSVSDIIDYFRKMPLLLIDGKNRGSRYQCTLTHAAGYP

Variants of: B1
Experiment: co-immunoprecipitation, quantified Western blot
Settings: with GFP-SLP76 [human]; N2a cells; read off a plot

Row | Variant | ratio to parent (fold of wild-type)
1 | chain 1 MVDREQLVQKARLAEQAERYDDMAAAMKNVTELNEPLSNEERNLLSVAYKNVVGARCSSWRVISSIEQKTSADGNEKKIEMVRAYREKIEKELEAVCQDVLSLLDNYLIKNCSETQYESKVFYLKMKGDYYRYLAEVATGEKRATVVESSEKAYSEAHEISKEHMQPTHPIRLGLALNYSVFYYEIQNAPEQACHLAKTAFDDAIAELDTLNEDSYKDSTLIMQLLRDNLTLWTSDQQDDDGGEGNN [chain 1 R57C] | 0.2
